Key:
[1] = target: T1, human recombinant soluble ACE2 (human, UniProt Q9BYF1 18-740); assay: ELISA
T1 construct: also called hrsACE2

[2] = target: T2, full-length trimeric SARS-CoV-2 Spike protein (Spike-H6) (SARS-CoV-2, N-glycosylated (22 N-glycosylation sites)); assay: ELISA screen
T2 construct: also called trimeric Spike; full-length Spike-H6

[3] = target: T1, human recombinant soluble ACE2; assay: ELISA screen
[4] = target: T3, monomeric SARS-CoV-2 receptor binding domain (RBD-H6) (SARS-CoV-2, UniProt P0DTC2 319-541); assay: ELISA screen
T3 construct: Made in HEK293-6E cells; also called RBD Spike; monomeric RBD

[5] = target: T2, full-length trimeric SARS-CoV-2 Spike …; assay: AFM single molecule force spectroscopy, Evans model
[6] = target: T2, full-length trimeric SARS-CoV-2 Spike …; assay: SPR, Spike immobilized, bivalent analyte model, first binding step
[7] = target: T2, full-length trimeric SARS-CoV-2 Spike …; assay: inhibition of Spike binding to Vero E6 cells, AFM

T1 sequence (Q9BYF1 18-740 limits assumed): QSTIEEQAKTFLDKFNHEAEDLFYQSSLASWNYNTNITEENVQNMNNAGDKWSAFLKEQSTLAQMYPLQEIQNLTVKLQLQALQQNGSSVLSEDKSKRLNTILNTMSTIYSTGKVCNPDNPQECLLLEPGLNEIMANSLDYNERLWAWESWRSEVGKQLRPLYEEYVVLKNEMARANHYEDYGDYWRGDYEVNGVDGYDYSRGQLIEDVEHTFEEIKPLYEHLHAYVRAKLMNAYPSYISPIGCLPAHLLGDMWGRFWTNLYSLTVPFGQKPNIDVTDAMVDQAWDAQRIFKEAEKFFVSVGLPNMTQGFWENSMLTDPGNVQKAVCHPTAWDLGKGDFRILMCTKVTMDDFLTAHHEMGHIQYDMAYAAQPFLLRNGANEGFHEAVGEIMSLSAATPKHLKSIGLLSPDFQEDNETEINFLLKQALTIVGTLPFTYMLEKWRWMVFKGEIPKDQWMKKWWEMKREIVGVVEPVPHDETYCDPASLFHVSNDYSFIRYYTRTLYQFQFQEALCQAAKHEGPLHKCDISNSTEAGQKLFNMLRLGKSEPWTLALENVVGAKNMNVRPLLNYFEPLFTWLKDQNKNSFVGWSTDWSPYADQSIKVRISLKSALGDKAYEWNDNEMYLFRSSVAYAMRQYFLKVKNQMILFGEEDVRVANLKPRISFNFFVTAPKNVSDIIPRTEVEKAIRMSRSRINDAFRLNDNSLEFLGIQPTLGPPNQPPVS

Binder	binding result [1]	Mean normalized OD [2] [OD]	Mean normalized OD [3] [OD]	Mean normalized OD [4] [OD]	koff [5] [s⁻¹]	Kd [6] [nM]	koff [6] [s⁻¹]	kon [6] [M⁻¹ s⁻¹]	Ki [7] [nM]
Clec1b CRD-mouse IgG2a-Fc fusion protein (Fc fusion) HGDSCYGFFRRNLTWEESKQYCTEQNATLVKTASQSTLDYIAERITSVRWIGLSRQNSKKDWMWEDSSVLRKNGINLSGNTEENMNCAYLHNGKIHPASCKERHYLICEGGGSGGGSGGGS	no binding (tested: 10 µg/ml)	0.024	0.04	0.03					
Clec2e CRD-mouse IgG2a-Fc fusion protein (Fc fusion) FGNKCFYFSEDMGNWTFSQSSCIALDAHLALFDSLEELNFLKRYKGASDHWIGLHRESSEHPWIWTDNTEYNNLVLTRGGGECAYLSNRGIYNSSGDIHKKWICNGGGSGGGSGGGS	no binding (tested: 10 µg/ml)	0.017	0.066	0.016					
Clec14a CRD-mouse IgG2a-Fc fusion protein (Fc fusion) ASGACYSLHHATFKRRAAEEACSLRGGTLSTVHSGSEFQAVLLLLRAGPGPGGGSKDLLFWVALERSISQCTQEKEPLRGFSWLHPDSEDSEDSPLPWVEEPQRSCTVRKCAALQATRGVEPAGWKEMRCHLRTDGYLCKYGGGSGGGSGGGS	no binding (tested: 10 µg/ml)	0.012	0.029	0.004					
Clec4g CRD-mouse IgG2a-Fc fusion protein (Fc fusion) FQGSCYYFSETQATWDTAQSYCGGQGAHLVIVRGLNEQGFLSQHTRGRGYWLGLRAVRHLNKIQGYRWVDGASLNFSHWNSGEPNDSRGHEDCIMMLHSGLWNDAPCTNERDGWICGGGSGGGSGGGS	no binding (tested: 10 µg/ml)	1.68	0.04		0.037	1620	0.0997	61700	35 to 70
Clec12b CRD-mouse IgG2a-Fc fusion protein (Fc fusion) YGNSCYYFSINEEKSWSDSRKDCIDKNATLVKIDSTEERDLLQSQLSLTFSFFWLGLSWNSSGRNWLWEDGSFPPPTLFSDKELASFNGSRDCAYFERGNIYASRCSAEIPWICEGGGSGGGSGGGS	no binding (tested: 10 µg/ml)	0.002	0.007	0.001					
Asgr2 CRD-mouse IgG2a-Fc fusion protein (Fc fusion) CCPVNWVEFGGSCYWFSRDGLTWAEADQYCQLENAHLLVINSREEQDFVVKHRSQFHIWIGLTDRDGSWKWVDGTDYRSNYRNWAFTQPDNWQGHEQGGGEDCAEILSDGHWNDNFCQQVNRWVCEKGGGSGGGSGGGS	no binding (tested: 10 µg/ml)	0.003	0.034	0.013					

— patent publication EP4039268A1 (IMBA-Institut für Molekulare Biotechnologie GmbH, dated 2022)
